Patent US7057015B1, “Hormone receptor functional dimers and methods of their use” (The Salk Institute for Biological Studies, priority 1999, dated 2006)

T1: Drosophila melanogaster ecdysone receptor (monomeric) (Drosophila melanogaster, UniProt P34021 1-878)
T1 construct: also called EcR; dmEcR
T1 sequence (looked up): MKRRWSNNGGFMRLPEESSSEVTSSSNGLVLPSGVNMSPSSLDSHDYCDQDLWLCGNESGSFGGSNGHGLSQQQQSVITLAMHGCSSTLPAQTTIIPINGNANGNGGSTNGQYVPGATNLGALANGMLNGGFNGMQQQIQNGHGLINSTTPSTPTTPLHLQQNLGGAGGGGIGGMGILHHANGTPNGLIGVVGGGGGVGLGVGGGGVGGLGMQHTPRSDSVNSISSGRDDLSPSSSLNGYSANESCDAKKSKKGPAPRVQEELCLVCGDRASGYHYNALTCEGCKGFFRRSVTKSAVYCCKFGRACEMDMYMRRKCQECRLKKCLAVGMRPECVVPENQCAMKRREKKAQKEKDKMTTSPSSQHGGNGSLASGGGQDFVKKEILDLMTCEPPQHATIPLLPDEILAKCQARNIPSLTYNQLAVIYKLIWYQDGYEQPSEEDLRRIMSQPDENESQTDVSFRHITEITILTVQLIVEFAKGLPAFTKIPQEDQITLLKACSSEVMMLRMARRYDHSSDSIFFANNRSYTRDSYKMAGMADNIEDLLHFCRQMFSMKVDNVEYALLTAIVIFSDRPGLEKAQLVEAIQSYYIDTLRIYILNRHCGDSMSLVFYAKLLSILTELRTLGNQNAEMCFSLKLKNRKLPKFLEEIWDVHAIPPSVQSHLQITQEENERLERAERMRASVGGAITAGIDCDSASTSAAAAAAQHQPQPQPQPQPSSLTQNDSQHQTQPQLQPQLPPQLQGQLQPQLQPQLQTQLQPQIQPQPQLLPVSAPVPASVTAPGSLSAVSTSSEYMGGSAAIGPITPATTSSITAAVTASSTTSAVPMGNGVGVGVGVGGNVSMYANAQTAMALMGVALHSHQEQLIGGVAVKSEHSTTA


Columns and labels:
[1] = target: T1, Drosophila melanogaster ecdysone …; assay: gel mobility shift on 32P-labelled EcRE probe, proteins translated in vitro
Description: The reactions were allowed to proceed at 23° C. for 5 minutes at which time ligand or vehicle was added and the reaction allowed to continue for 20 additional minutes. Band volumes were quantified using laser scanning densitometry.

[2] = tested on: E4-luc reporter plasmid in 293 cells; assay: Transient transfection luciferase transactivation assay with E4-luc reporter; type: cell-based, human
Description: For quantitative transactivation analysis, transfections were performed in triplicate in 24-well plates by calcium-phosphate co-precipitation with 100 ng of an individual receptor, the reporter plasmid E4-luc, and pCH110 (SV40-β-galactosidase) as an internal control. Briefly, the reporter plasmid, E4-luc, was constructed of 4-tandem EcREs inserted upstream of a thymidine kinase gene minimal promoter directing luciferase expression. […] 1 μM ligand was added at the time of transfection, and the cells were harvested for luciferase assay 40 hours later. Harvested cell extracts were split, and one part was analyzed in a luminometer for luciferase activity and the other part was analyzed for β-galactosidase activity using an orthonitrophenyl galactoside assay by standard methods. Luciferase levels were normalized to β-galactosidase values to correct for slight differences in transfection efficiency.

[3] = tested on: EcRE probe; assay: Gel mobility shift analysis of EcRE probe binding by FDs; settings: 1 μM murA vs vehicle, extracts of transfected 293 cells
Description: Preparation of the invention fusion protein FDs for gel shift analysis by transient transfection into 293 cells was as follows: 300 ng of individual receptor plasmids and 100 ng pCH110 internal control plasmid were cotransfected into 293 cells at 60% density in Costar 6-well plates. One well of each group was treated with 1 μM murA as ligand at the time of transfection. 40 hours later, extracts of transfected 293 cells were made by scraping the cells from a well into a low volume of phosphate buffered saline, pelleting the cells, resuspending them in 200 μl 5×gel shift buffer (Yao et al., supra 1992), and sonicating with a Kontes cell disrupter for three 10-sec. bursts at output level 30. The extracts were then centrifuged to clear the lysate and the protein was quantified. […]
Comparative gel mobility shift analyses of FDs with control in vitro translated receptor complexes were performed using double stranded EcRE probes and labeled by Klenow fill using ^32P-dCTP and cold dGAT by standard methods. […] Band volumes were quantified using laser scanning densitometry.
An autoradiogram of FDs and controls treated either with control vehicle or with 1 μM of murA as ligand was made with markers indicating endodimer FD or wild type receptor-binding complex band shifts. […] FIG. 2A is a graph that quantifies endodimer-sized band volumes obtained from the autoradiogram.

Molecule | binding result [1] | Rel. Ind. = relative induction of individual receptor groups ([2]; +ligand (1 μM murA) versus −ligand) [fold] | +Lig/E4 = luciferase activity vs. reporter only with ligand ([2]; transiently co-transfected 293 cells, 1 μM murA, relative to E4-luc reporter only) | −Lig/E4 = luciferase activity vs. reporter only without ligand ([2]; transiently co-transfected 293 cells, without ligand, relative to E4-luc reporter only) | relative-fold increase in response element binding (endodimer band) resulting from ligand treatment [3] [fold]
human retinoid X receptor alpha (monomeric) (receptor, UniProt P19793 1-462, looked up, also called RXR; hRXR) MDTKHFLPLDFSTQVNSSLTSPTGRGSMAAPSLHPSLGPGIGSPGQLHSPISTLSSPINGMGPPFSVISSPMGPHSMSVPTTPTLGFSTGSPQLSSPMNPVSSSEDIKPPLGLNGVLKVPAHPSGNMASFTKHICAICGDRSSGKHYGVYSCEGCKGFFKRTVRKDLTYTCRDNKDCLIDKRQRNRCQYCRYQKCLAMGMKREAVQEERQRGKDRNENEVESTSSANEDMPVERILEAELAVEPKTETYVEANMGLNPSSPNDPVTNICQAADKQLFTLVEWAKRIPHFSELPLDDQVILLRAGWNELLIASFSHRSIAVKDGILLATGLHVHRNSAHSAGVGAIFDRVLTELVSKMRDMQMDKTELGCLRAIVLFNPDSKGLSNPAEVEALREKVYASLEAYCKHKYPEQPGRFAKLLLRLPALRSIGLKCLEHLFFFKLIGDTPIDTFLMEMLEAPHQMT | binds | – | – | – | –
E5U: fusion protein: Drosophila EcR at amino terminus, 5 linker segments (65 amino acids), ultraspiracle protein (protein) MKRRWSNNGGFMRLPEESSSEVTSSSNGLVLPSGVNMSPSSLDSHDYCDQDLWLCGNESGSFGGSNGHGLSQQQQSVITLAMHGCSSTLPAQTTIIPINGNANGNGGSTNGQYVPGATNLGALANGMLNGGFNGMQQQIQNGHGLINSTTPSTPTTPLHLQQNLGGAGGGGIGGMGILHHANGTPNGLIGVVGGGGGVGLGVGGGGVGGLGMQHTPRSDSVNSISSGRDDLSPSSSLNGYSANESCDAKKSKKGPAPRVQEELCLVCGDRASGYHYNALTCEGCKGFFRRSVTKSAVYCCKFGRACEMDMYMRRKCQECRLKKCLAVGMRPECVVPENQCAMKRREKKAQKEKDKMTTSPSSQHGGNGSLASGGGQDFVKKEILDLMTCEPPQHATIPLLPDEILAKCQARNIPSLTYNQLAVIYKLIWYQDGYEQPSEEDLRRIMSQPDENESQTDVSFRHITEITILTVQLIVEFAKGLPAFTKIPQEDQITLLKACSSEVMMLRMARRYDHSSDSIFFANNRSYTRDSYKMAGMADNIEDLLHFCRQMFSMKVDNVEYALLTAIVIFSDRPGLEKAQLVEAIQSYYIDTLRIYILNRHCGDSMSLVFYAKLLSILTELRTLGNQNAEMCFSLKLKNRKLPKFLEEIWDVHAIPPSVQSHLQITQEENERLERAERMRASVGGAITAGIDCDSASTSAAAAAAQHQPQPQPQPQPSSLTQNDSQHQTQPQLQPQLPPQLQGQLQPQLQPQLQTQLQPQIQPQPQLLPVSAPVPASVTAPGSLSAVSTSSEYMGGSAAIGPITPATTSSITAAVTASSTTSAVPMGNGVGVGVGVGGNVSMYANAQTAMALMGVALHSHQEQLIGGVAVKSEHSTTAGPTGPGPGGGSGGGSGTGPGGGSGGGSGTGPGGGSGGGSGTGPGGGSGGGSGTGPGGGSGGGSGTMDNCDQDASFRLSHIKEEVKPDISQLNDSNNSSFSPKAESPVPFMQAMSMVHVLPGSNSASSNNNSAGDAQMAQAPNSAGGSAAAAVQQQYPPNHPLSGSKHLCSICGDRASGKHYGVYSCEGCKGFFKRTVRKDLTYACRENRNCIIDKRQRNRCQYCRYQKCLTCGMKREAVQEERQRGARNAAGRLSASGGGSSGPGSVGGSSSQGGGGGGGVSGGMGSGNGSDDFMTNSVSRDFSIERIIEAEQRAETQCGDRALTFLRVGPYSTVQPDYKGAVSALCQVVNKQLFQMVEYARMMPHFAQVPLDDQVILLKAAWIELLIANVAWCSIVSLDDGGAGGGGGGLGHDGSFERRSPGLQPQQLFLNQSFSYHRNSAIKAGVSAIFDRILSELSVKMKRLNLDRRELSCLKAIILYNPDIRGIKSRAEIEMCREKVYACLDEHCRLEHPGDDGRFAQLLLRLPALRSISLKCQDHLFLFRITSDRPLEELFLEQLEAPPPPGLAMKLE | – | 1.6 | 0.62 | 0.41 | 0.9
Drosophila melanogaster ultraspiracle protein (monomeric) (receptor, UniProt P20153 1-508, looked up, also called Usp; dmUsp) MDNCDQDASFRLSHIKEEVKPDISQLNDSNNSSFSPKAESPVPFMQAMSMVHVLPGSNSASSNNNSAGDAQMAQAPNSAGGSAAAAVQQQYPPNHPLSGSKHLCSICGDRASGKHYGVYSCEGCKGFFKRTVRKDLTYACRENRNCIIDKRQRNRCQYCRYQKCLTCGMKREAVQEERQRGARNAAGRLSASGGGSSGPGSVGGSSSQGGGGGGGVSGGMGSGNGSDDFMTNSVSRDFSIERIIEAEQRAETQCGDRALTFLRVGPYSTVQPDYKGAVSALCQVVNKQLFQMVEYARMMPHFAQVPLDDQVILLKAAWIELLIANVAWCSIVSLDDGGAGGGGGGLGHDGSFERRSPGLQPQQLFLNQSFSYHRNSAIKAGVSAIFDRILSELSVKMKRLNLDRRELSCLKAIILYNPDIRGIKSRAEIEMCREKVYACLDEHCRLEHPGDDGRFAQLLLRLPALRSISLKCQDHLFLFRITSDRPLEELFLEQLEAPPPPGLAMKLE | binds | – | – | – | –
